Assay results: patent US20180037632A1 (BIONTECH, published 2018)
Positions of bridges follow the written chain, without caps; N, C: chain ends. No end group written: not given here.

T1: recombinant soluble human Seprase (rhuSeprase) (human, UniProt Q12884 29-760)
T1 construct: range 29-760; Secreted from CHO-S cells with a mouse Ig kappa secretion signal (not part of the protein in the assay); also called recombinant human Seprase; soluble fraction of human Seprase
T1 sequence: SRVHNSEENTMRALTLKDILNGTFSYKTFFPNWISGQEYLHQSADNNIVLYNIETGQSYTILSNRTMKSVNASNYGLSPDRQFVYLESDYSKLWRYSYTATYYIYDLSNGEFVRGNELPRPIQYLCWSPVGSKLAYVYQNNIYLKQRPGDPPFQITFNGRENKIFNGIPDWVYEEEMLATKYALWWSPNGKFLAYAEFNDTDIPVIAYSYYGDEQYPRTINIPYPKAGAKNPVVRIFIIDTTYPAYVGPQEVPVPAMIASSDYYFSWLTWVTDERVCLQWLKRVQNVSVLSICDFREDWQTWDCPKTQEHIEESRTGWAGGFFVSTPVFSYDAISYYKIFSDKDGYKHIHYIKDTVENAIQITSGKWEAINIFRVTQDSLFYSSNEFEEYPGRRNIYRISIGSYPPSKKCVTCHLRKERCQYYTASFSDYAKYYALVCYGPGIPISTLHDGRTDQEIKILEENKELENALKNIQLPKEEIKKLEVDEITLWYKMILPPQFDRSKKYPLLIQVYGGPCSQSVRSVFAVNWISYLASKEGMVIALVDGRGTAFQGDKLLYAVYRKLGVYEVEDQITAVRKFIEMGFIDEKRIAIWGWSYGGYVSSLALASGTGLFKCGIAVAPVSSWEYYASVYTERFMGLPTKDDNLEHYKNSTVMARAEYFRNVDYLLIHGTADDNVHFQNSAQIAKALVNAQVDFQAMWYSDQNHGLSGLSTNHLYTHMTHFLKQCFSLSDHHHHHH


How the values were obtained:
[1] = target: T1, recombinant soluble human Seprase …; experiment: SPR (Biacore T-100), rhuSeprase immobilized on CM5, steady state analysis, 1:1 fit
Procedure: (§1) RhuSeprase (20 μg/ml in PBS, 5% mannitol, 5% trehalose) was immobilized on an amino reactive Series S Sensor Chip CM5 (GE Healthcare). For binding analysis of monomeric Microbodies rhuSeprase was loaded to a maximum of 7500 RU, for oligomeric Microbodies to a maximum of 700 RU. Monomeric Microbodies were measured using a multi cycle kinetic method in a concentration range of 3.125 to 1000 nM based on expected dissociation constant. Association step was measured over a time period of 60-90 seconds, dissociation over 420 seconds. Trimeric Mircobodies were measured using a single cycle kinetics method in a concentration range of 0.3125 to 5 nM (association for 90 seconds, dissociation 420 seconds). Binding kinetics and steady state analysis were calculated using a 1:1 binding model (Biacore T-100 Evaluation Software, GE Healthcare).
(§2) The binding kinetics of monomeric and trimeric Seprase-binding Microbodies was determined using surface plasmon resonance spectroscopy on a Biacore T-100 system.

[2] = target: T1, recombinant soluble human Seprase …; experiment: SPR (Biacore T-100), rhuSeprase immobilized on CM5, multi cycle kinetics, 1:1 fit
Procedure: as §1, §2

[3] = target: T1, recombinant soluble human Seprase …; experiment: SPR (Biacore T-100)
Procedure: as §1, §2

[4] = target: T1, recombinant soluble human Seprase …; experiment: SPR (Biacore T-100), rhuSeprase immobilized on CM5, single cycle kinetics, 1:1 fit
Procedure: as §1, §2

[5] = target: T1, recombinant soluble human Seprase …; experiment: direct ELISA on coated rhuSeprase; binding relative to the parental Trx-MC-FA-010
Procedure: (§3) For protein based ELISA analysis 5 μg of the respective recombinant protein (rhuSeprase; streptavidin: Sigma; DPP-IV: R&D Systems, BSA: Eurobio) were immobilized per well of a MaxiSorp™ plate (Nunc) by overnight incubation in coating buffer at 4° C. After washing thrice with 300 μl PBS-T/well on a Hydrospeed plate washer (Tecan) the wells were blocked with 1×Casein solution (Sigma, diluted in PBS) for 2 h at RT. Subsequently, the wells were washed as indicated above. 100 μl of the respective Trx-miniprotein fusion diluted in PBS-T was then added and incubated for 1 h at 4° C. […] For competition ELISAs a fixed concentration of 3 nM Trx-miniprotein fusion was mixed with varying concentration (0.64-3167 nM) of solitary miniprotein before incubation. Binding of the Trx-fusion was detected after a PBS-T washing procedure using HRP coupled anti S-tag antibody as described above. Apparent Kd was calculated using Sigmaplot 10 and an one site saturation binding model for fitting of the data.

[6] = target: T1, recombinant soluble human Seprase …; experiment: direct ELISA on coated rhuSeprase, Trx fusion detected with anti-S-tag-HRP; apparent KD from one site saturation fit; Error 0,54; R2 0,9981
Procedure: as §3

[7] = target: T1, recombinant soluble human Seprase …; experiment: direct ELISA on coated rhuSeprase, Trx fusion detected with anti-S-tag-HRP; apparent KD from one site saturation fit; Error 1,76; R2 0,9973
Procedure: as §3

[8] = target: T1, recombinant soluble human Seprase …; experiment: direct ELISA on coated rhuSeprase, Trx fusion detected with anti-S-tag-HRP; apparent KD from one site saturation fit; Error 11,54; R2 0,9969
Procedure: as §3

[9] = target: T1, recombinant soluble human Seprase …; experiment: direct ELISA on coated rhuSeprase, Trx fusion detected with anti-S-tag-HRP; apparent KD from one site saturation fit; Error 1,02; R2 0,9976
Procedure: as §3

[10] = target: T1, recombinant soluble human Seprase …; experiment: direct ELISA on coated rhuSeprase, Trx fusion detected with anti-S-tag-HRP; apparent KD from one site saturation fit; Error 3,04; R2 0,9976
Procedure: as §3

[11] = target: T1, recombinant soluble human Seprase …; experiment: direct ELISA on coated rhuSeprase, Trx fusion detected with anti-S-tag-HRP; apparent KD from one site saturation fit; Error 1,17; R2 0,9981
Procedure: as §3

[12] = target: T1, recombinant soluble human Seprase …; experiment: direct ELISA on coated rhuSeprase, Trx fusion detected with anti-S-tag-HRP; apparent KD from one site saturation fit; Error 1,17; R2 0,9977
Procedure: as §3

Binder	Kd [1] [nM]	Kd [2] [nM]	koff [2] [s⁻¹]	kon [2] [M⁻¹ s⁻¹]	Relative Bindung im Vergleich zu Trx-MC-FA-010 [%] [5] [%]	other results
GACPYSNWTPGRGPDCRRDSDCPGRCICRGNGYCG (designed binder, disulfide (positions not given here), it is derived from MC-FA-010 and K2A; also called MC-FA-012 (K2A); monomeric MC-FA-012 Microbody) [MC-FA-012]	246	340	0.139	408000		
AlexaFluor680-(MC-FA-012)3 (designed binder, not shown: small tags and cut ends, each of chains 1-3: N-terminal aminooxy group oxime-ligated to the anchor; three disulfides (cystine knot) per chain; anchor carries AlexaFluor680 at its N-terminal amine, Purchased from Pepscan; also called AF680-(MC-FA-012)3) chain 1: GACPYSNWTPGRGPDCRRDSDCPGRCICRGNGYCG chain 2: GACPYSNWTPGRGPDCRRDSDCPGRCICRGNGYCG chain 3: GACPYSNWTPGRGPDCRRDSDCPGRCICRGNGYCG	0.669					times slower offrate compared to MC-FA-012 [3]: ~134 fold; Kd [4]: 0.0615 nM; kon [4]: 1.68e+07 M⁻¹ s⁻¹
GACPYSNWTPGRGPDCRRDSDCPGRCICRGNGYCG (designed binder, disulfide 16-28, 22-34, 3-26; also: N-terminal Trx-His6-S-tag fusion carrier, not in chain, also called MC-FA-012 (K2A) alanine scan variant; not shown: N-terminal carrier of the pET-32-LibEx fusion (thioredoxin-A, His tag, S-tag, thrombin site, vector linkers)) [Trx-MC-FA-012 fusion protein]					160	Kd [6]: 9.49 nM
GKCPYSNWTPGRGPACRRDSDCPGRCICRGNGYCG (designed binder, disulfide 16-28, 22-34, 3-26; also: N-terminal Trx-His6-S-tag fusion carrier, not in chain, the position follows from the order of the rows; also called alanine scan variant D15A of MC-FA-010, Trx fusion; not shown: Thioredoxin-A, His-tag (H6), S-tag and linker of the pET-32-LibEx fusion, N-terminal of the miniprotein) [Trx-MC-FA-0114]					59.2	Kd [7]: 25.6 nM
GKCPYSAWTPGRGPDCRRDSDCPGRCICRGNGYCG (designed binder, disulfide (positions not given here); also: N-terminal thioredoxin-A, His6, S-tag and linker carrier, letters not given here, the position follows from the order of the rows; also called alanine scan variant N7A of MC-FA-010, Trx fusion; not shown: thioredoxin-A, His6 tag, S-tag and linkers of the pET-32-LibEx fusion (N-terminal carrier)) [Trx-MC-FA-016]					13.4	Kd [8]: 113 nM
GKCPYANWTPGRGPDCRRDSDCPGRCICRGNGYCG (designed binder, disulfide 16-28, 22-34, 3-26; also: N-terminal Trx-His6-S-tag fusion carrier, not in chain, the position follows from the order of the rows; also called alanine scan variant S6A of MC-FA-010, Trx fusion; not shown: thioredoxin-A, His6 tag, S-tag and linkers of the pET-32-LibEx fusion (N-terminal carrier)) [Trx-MC-FA-015]					93.6	Kd [9]: 16.2 nM
GKCAYSNWTPGRGPDCRRDSDCPGRCICRGNGYCG (designed binder, disulfide 16-28, 22-34, 3-26; also: N-terminal Trx-His6-S-tag fusion carrier, not in chain, the position follows from the order of the rows; also called alanine scan variant P4A of MC-FA-010, Trx fusion; not shown: Thioredoxin-A, His-tag (H6), S-tag and linker of the pET-32-LibEx fusion, N-terminal of the miniprotein) [Trx-MC-FA-013]					33.7	Kd [10]: 44.9 nM
AKCPYSNWTPGRGPDCRRDSDCPGRCICRGNGYCG (designed binder, disulfide 16-28, 22-34, 3-26; also: N-terminal Trx-His6-S-tag fusion carrier, letters not given here, the position follows from the order of the rows; also called alanine scan variant G1A of MC-FA-010, Trx fusion; not shown: Thioredoxin-A, His-tag (H6), S-tag and linker of the pET-32-LibEx fusion, N-terminal of the miniprotein) [Trx-MC-FA-011]					74.5	Kd [11]: 20.3 nM
GKCPYSNWTPGRGPDCRRDSDCPGACICRGNGYCG (designed binder, disulfide 16-28, 22-34, 3-26; also: N-terminal Trx-His6-S-tag fusion carrier, not in chain, also called alanine scan variant R25A of MC-FA-010, Trx fusion; not shown: Thioredoxin-A, His-tag (H6), S-tag and linker of the pET-32-LibEx fusion, N-terminal of the miniprotein) [Trx-MC-FA-0115]					80.7	Kd [12]: 18.8 nM
GSGACPYSNWTPGRGPDCSQDSDCLAGCVCGPNGFCG (designed binder) [ET-FA-012]	4540	1400	0.853	608000		
GSGACPYTRWAVGRGPDCRRDSDCPGRCICRGNGYCG (designed binder) [FA8-D03]	151	147	0.138	939000		
GSGACPYSRWAVGRGPDCRRDSDCPGRCICRGNGYCG (designed binder) [FA8-D06]	113	153	0.053	346000		
GSGACPYTNWRPGRGPACRRDSDCPGRCICRGNGYCG (designed binder) [FA8-C09]	243	296	2.94	9.92e+06		
GSGACPYTRWQPGRGPSCRRDSDCPGRCICRGNGYCG (designed binder) [FA8-D05]	177	193	0.812	4.21e+06		
GSGACPYSNWAVGRGPSCRRDSDCPGRCICRGNGYCG (designed binder) [FA8-F04]	332	321	0.2	624000		
GSGACPYSRWMPGRGPSCRRDSDCPGRCICRGNGYCG (designed binder) [FA7-A05]	102	205	0.0503	246000		
GSGACPYTNWHPGRGPACRRDSDCPGRCICRGNGYCG (designed binder) [FA8-G12]	470	487	0.317	651000		
GSGACPYSNWTPGRGPDCSSDSDCPGACICLENGFCG (designed binder) [MO-FA-012]	1160	1340	0.513	382000		
